Data reported in patent publication US20250034594A1, “RNA-GUIDED GENOME RECOMBINEERING AT KILOBASE SCALE” (THE BOARD OF TRUSTEES OF THE LELAND STANFORD JUNIOR …, priority 2021, published 2025).

How the values were obtained:
Format in all cases: cell-based
gene editing with dCas9 = experiment: Screen of 322 new SSAP proteins, gene editing activity with dCas9 (Table 5); design: dCas9 with SSAP activity: scale not given here
Procedure, shortened: (§1)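 The 322 SSAP proteins were found in sequence data and then synthesized. Each was screened for gene editing activity when paired with Cas9 and with dCas9.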

gene editing with Cas9 = experiment: Screen of 322 new SSAP proteins, gene editing activity with Cas9 (Table 5); design: Cas9 with SSAP activity: scale not given here
Procedure, shortened: as §1

[1] = tested on: gene editing with Cas9 and dCas9; experiment: Screen of 322 new SSAP proteins, activity across all experiments (Cas9 and dCas9, Table 5); design: scale not given here
Procedure, shortened: as §1

| Molecule | dCas9 with SSAP activity (gene editing with dCas9) | dCas9 with SSAP activity (normalized) (gene editing with dCas9) | Cas9 with SSAP activity (gene editing with Cas9) | Cas9 with SSAP activity (normalized) (gene editing with Cas9) | Activity across all experiments [1] |
| --- | --- | --- | --- | --- | --- |
| SSAP_145: SEQ ID NO: 314; Roseburia sp. CAG: 182 (protein, listed as Roseburia sp.) DVKEELAKMAEEKPTKKLTKSMSIQDMIKVIEPEIKKALPSVLTPERFTRMALSAINNTPKLAECSQISFLAALMNAAQLGLEPNTPLGQAYLIPFQNKGKLECQFQIGYKGIIELVYRNPLIQTIQAQVVYENDEFEYELGLNSRLFHRPALYDRGETVLFYALFKMSNGGYGFEVLSKQDMDAYAKRYSKGISSEYSPWKSNYEEMAKKTMIKKVLKYAPIRTDFQKAVSMDESIKKELSVDMSEVSNENIIDMEEITQEEE | −2.440 | −0.309 | −0.211 | −0.214 | −1.325 |
| SSAP_68: SEQ ID NO: 237 (protein) TQQMPIEAQGEPTKELQQKAAVDRFNATLHQMQNEIARALPKHMTGDRFVRIVLTEVRKDPTLALCDPLTMFGSLLTAAALGLEPGLNGECWLVPRKNHGTLEAQLQVGYRGVVKLFWQNPAAAYLDTGYVCERDHFRFAKGLNPILEHTPAEGDRGKVVRYYAVAGLNTGARVFDVFTPAQIKTLRGGKVGSNGDIPDPEHWMERKTALLQVLKLMPKSTQLAAVPAADGRAHTISDAQQIFGGVDTSTGEVLEAEPVEGDAA | −2.230 | −0.296 | 1.110 | 4.696 | −0.560 |
| SSAP_54: SEQ ID NO: 223; Bet Pseudomonas phage PS-1 (protein, listed as Pseudomonas sp.) SNVATIKPSSLSARMAERFGVDPNEMMATLKATAFKGQVSDAQMQALLIVADQYGLNPWTKEIYAFPDKGGIVPVVGVDGWSRIINENGAFDGMDFQQDDESCTCIIYRKDRNHPIKVTEWMAECKRNTQPWQSHPKRMLRHKAMIQCARLAFGYTGIFDEDEAQRIVEKDVTPAVNEPDITPALEAIKNASSMEELHAAFKAAWNQHPSARARLTAVKDERKKALSEPIEGELVENEDGPAQQ | −2.517 | −0.565 | −0.011 | −0.061 | −1.264 |
| SSAP_101: SEQ ID NO: 270; Halomonadaceae bacterium R4HLG17 (protein, Halomonadaceae bacterium R4HLG17) SEVATQDTLGKELQQHSGQQKKPMPTTIQGMLKDPRFTSQIARALPKHITPDRITRIALTEVNKTPALGKCDPVTLFGSIIQSAQLGLELGGALGHAYLVPYGNQAQFIIGYRGMIDLARRSGQMVSLQAHTVHDNDEFDFEYGLDEKLRHVPARGDRGPMVAVYSVAKLVGGGHQIEVMWKEDVDAIRSKSKAGNSGPWRDHYEEMAKKTAIRRLFKYLPVSVEMQKAVALDEQAEAGVQDNNVFDGEFSYGEAE | −2.273 | −0.413 | −1.798 | −0.307 | −2.036 |
| SSAP_81: SEQ ID NO: 250 (protein) TDVKQELERKVGKQDSTAVRLTKNMSIPDMIKALEPEIRRALPAVLTPERFLRMALSAVNNTPKLAECTPMSFIAAMMNAAQLGLEPNTPLGQAYLIPYKNKNQLECQFQIGYKGIIDLAYRTGQMQMIQAHAVHEFDDFEYEYGLNPKLIHRPGDGNRGEITYFYGLFKLVNGGFGFEVMNREAMEAFAQQYSQSYGSQYSPWVKNFEDMAKKTVIKKALKYGPVKAEFQKAISMDETIKTEIAVDMTEVQNEESE | −2.360 | −0.367 | −2.257 | −0.341 | −2.308 |
| SSAP_257: SEQ ID NO: 426; Listeria (multispecies) (protein, listed as Listeria sp.) ATNDELKNQLANKQNGGQVASAQSLDLKGLLEAPTMRKKFEKVLDKKAPQFLTSLLNLYNGDDYLQKTDPMTVVTSAMVAATLDLPIDKNLGYAWIVPYKGRAQFQLGYKGYIQLALRSGQYKSINVIEVREGELLKWNRLTEEIELDLDNNTSEKVVGYCGYFQLINGFEKTVYWTRKEIEAHKQKFSKSDFGWKKDYDAMAKKTVLRNMLSKWGILSIDMQTAVTEDEAEPRERKDVTEDESIPDIIDAPITPSDTLEAGSEVQGSMI | −2.649 | −1.189 | 0.216 | 0.821 | −1.217 |
| SSAP_274: SEQ ID NO: 443; Clostridium liquoris (protein, listed as Clostridium liquoris) TTASELKNQLATRKETGVGSAGNTVKGLLESPAIKKRFEEVLKQRAPQYMSSIVNLVNGDANLKKCDQMSVIASCMVAATLDLPVDKNLGYAWVVPYGNKAQFQLGYKGYVQLALRTGQYKSINVIEIHEGELIEWNPLTEELRIDFEKKKSDAIIGYAGYFELINGFRKSTYWTKEQITKHKNKFSKSDFGWKKDFDAMAKKTVLRNMLSKWGILSIEMQNAYTADQETIKSEVLETGNIKENVEYVEADFDVDFEGTPFEEGVTNE | −2.423 | −0.328 | 0.280 | 0.259 | −1.072 |
| SSAP_314: SEQ ID NO: 483; Ferrimonas kyonanensis (protein, listed as Ferrimonas kyonanensis) NQMINEPDFVTALKDSRETYIDLTQNGGFNLNYGLEAGWAHQQIEASRYQNLDLTCSEPGSIMQAFCEAARLGLSFDPRKKHIYLMGQKDVQSGRTITILYVGYKGMIALACRTGFMIGGHADLVFEEDTFTYRSGTQLPVHEHDGRPNHERGRLKCGYVVAHQPGGMVKTLLVPKEVLLEAASNGLNAGGSNNTWCGPYMEMMYQKTCWRYAFNAWYSELEAVGMTQAQLESATTAVSYQ | −2.593 | −0.657 | 0.114 | 0.106 | −1.240 |
| SSAP_242: SEQ ID NO: 411; Lactococcus sp. S-13 (protein, listed as Lactococcus sp.) SNQITKTQQTLKSPEVKAKFEEVLGKKADGFVASLLSVVGNSNLKTVEANSVMTAAMKAATLDLPIEPSLGFAYVIPYGREAQFQIGYKGFIQLALRSGQLTGLNCGIVYESQFVSYDPLFEELELDFTQQASGDAVGYFASMKLANGFKKVTYWSKEQVLAHKKKFVKSANGPWRDHFDAMAQKTVLKAMLTKYAPASIESKMIQTAITEDDSERFENAKDVTPDEPVISIDEPVTSEVSQNESSAESQEQFPEDEVEELFPIGKS | 3.640 | 2.062 | 2.358 | 1.579 | 2.999 |
| SSAP_129: SEQ ID NO: 298; Lacrimispora indolis (protein, listed as Lacrimispora indolis) SDVKQELEKRAAGGGGQSQSVRLTKNMTIVDMVKALEPEIKRALPSILTPERFTRMALSAINNTPKLGECTPMSFIAALMNAAQLGLEPNTPLGQAYLIPYKNKGVLECQFQLGYRGLIDLAYRNERMQSVEAQVVYENDEFSYELGLHPSLIHRPSFDEPGEIRAFYAIFRLDNGGFRFEVMSKSYVDAYAARYSKAFTSDFSPWKSNYEGMAKKTVIKQLLKYAPMKSEFQKAVTMDETIKTELSVDMSEVSNQEVIDRELTEQVA | −2.431 | −0.313 | 0.031 | 0.019 | −1.200 |
| SSAP_319: SEQ ID NO: 488; Helicobacter trogontum (protein, listed as Helicobacter trogontum) SNITTIQRKNEALALLENKEIQERLCALCGNEASKDKFKASLLNIALDSNLSACSMQSIVKASLDIAGLKLSLNKNLGKAYIVPRKVKIGNDYITEARIDIGYKGWLELAKRSKLSVKAHSVFDCDDFVYSVDGVDEYMKLTPNFELRQEHDSAWVKEHLKGIVVGIKDLKSGDSEVKFVSKGTLLKIMQKNDSVKNGKYSAYTDWLHEMLLAKAIKSCLSKTAMSEDTFYLIISNNKLFI | −2.508 | −0.276 | 0.742 | 1.773 | −0.883 |
| SSAP_30: SEQ ID NO: 199 (protein) EKPKLIQRFAERFSVDPNKLFDTLKATAFKQRDGSAPTNEQMMALLVVADQYGLNPFTKEIFAFPDKQAGIIPVVGVDGWSRIINQHDQFDGMEFKTSETKVSLDGAKECPEWMECIIYRRDRSHPVKITEYLDEVYRPPFEGNGKNGPYRVDGPWQTHTKRMLRHKSMIQCSRIAFGFVGIFDQDEAERIIEGQATHVVEPSVIPPEQVDDRTRGLVYKLIERAEASNAWNSALEYANEHFQGVELTFAKQEIFNAQQQAAKALTQPLAS | −2.667 | −0.795 | 0.813 | 0.564 | −0.927 |
